According to patent publication US20120093789, “Methods of Modulating Smooth Muscle Cell Proliferation and Differentiation” (published 2012):

T1: SRF (serum response factor) (UniProt Q9JM73 Q9JM73:1-504)
T1 sequence: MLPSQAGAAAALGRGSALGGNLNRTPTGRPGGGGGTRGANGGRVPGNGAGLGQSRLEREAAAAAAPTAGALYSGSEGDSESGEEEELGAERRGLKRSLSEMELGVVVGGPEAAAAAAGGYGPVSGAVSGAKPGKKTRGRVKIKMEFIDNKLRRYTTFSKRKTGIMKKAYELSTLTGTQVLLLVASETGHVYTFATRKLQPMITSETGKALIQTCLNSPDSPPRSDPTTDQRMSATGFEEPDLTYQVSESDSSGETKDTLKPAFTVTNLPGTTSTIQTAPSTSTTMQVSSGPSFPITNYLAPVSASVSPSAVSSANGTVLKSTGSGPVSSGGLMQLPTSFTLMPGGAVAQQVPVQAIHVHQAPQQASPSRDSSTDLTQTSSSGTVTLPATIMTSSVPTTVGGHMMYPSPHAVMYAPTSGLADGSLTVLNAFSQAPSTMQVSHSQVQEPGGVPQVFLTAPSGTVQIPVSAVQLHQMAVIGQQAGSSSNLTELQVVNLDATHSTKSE


Assays:
[1] = target: T1, SRF (serum response factor); test: EMSA; radiolabeled probe; cold WT competition
[2] = target: T1, SRF (serum response factor); test: competition; cold mutant competitor; competition with WT or mutant probe indicates specificity of band

| Binder | binding result [1] | binding result [2] |
| --- | --- | --- |
| miR-143/145 enhancer SRF site (CArG) WT (dsDNA) DNA 1: GGGAGCAGCCTTGCCATATAAGGGCAGG DNA 2: CCTGCCCTTATATGGCAAGGCTGCTCCC | binds |  |
| miR-143/145 enhancer SRF site mutant (dsDNA) DNA 1: GGGAGCAGCCTTGCTACCGAAGGGCAGG DNA 2: CCTGCCCTTCGGTAGCAAGGCTGCTCCC |  | no binding |
